Tm data for one substance are collected here from FireProtDB (doi:10.1021/bi060525p).

For the series the following is noted: Homo sapiens, pH 7.4, Thermal, Phosphate 10 mM.

Hemoglobin subunit alpha wild type, P69905, sequence (P69905 whole entry): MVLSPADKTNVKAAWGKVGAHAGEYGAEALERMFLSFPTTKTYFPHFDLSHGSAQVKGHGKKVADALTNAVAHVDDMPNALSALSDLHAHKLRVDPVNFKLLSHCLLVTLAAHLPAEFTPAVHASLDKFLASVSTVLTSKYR

Consider “Hemoglobin subunit alpha wild type, P69905”, for which the Tm is, setting by setting: (Absorbance) 71 °C; (CD) 73 °C; (DSC) 75 °C; (Optical Density) 58.7 °C.

For orientation: Tm means the temperature at the midpoint of the melting transition.
